Laboratory results from PMC4565128.

Target: Aldehyde dehydrogenase 7A1 (full-length recombinant human cytosolic ALDH7A1 isoform 2) (human)
Assay: SAXS

Aldehyde dehydrogenase 7A1 (full-length recombinant human cytosolic ALDH7A1 isoform 2) (enzyme)
stoichiometry N: 4
